15 molecules from US20240279280A1 (CAMBRIDGE ENTERPRISE, published 2024) can be followed below.

Several values for one entry are separate records, joined by “and”; a condition that tells them apart may be missing. Equal entries are not always repeated. Positions of bridges follow the written chain, without caps; N, C: chain ends. Non-standard residues stand in square brackets, D forms with d. No end group written: not given here. *: point of attachment. Phe(3,4,5-F3) = N[C@@H](Cc1cc(F)c(F)c(F)c1)C(=O)O; Myristoyl = CCCCCCCCCCCCCC(=O)*; pGlu = O=C1CC[C@@H](C(=O)O)N1; Nle = CCCC[C@H](N)C(=O)O; Abu = CC[C@H](N)C(=O)O; Aib = CC(C)(N)C(=O)O

T1: human apelin receptor (human, UniProt P35414 1-380)
T1 construct: whole, on cells; also called AGTRL1; APJ
T1 sequence (looked up): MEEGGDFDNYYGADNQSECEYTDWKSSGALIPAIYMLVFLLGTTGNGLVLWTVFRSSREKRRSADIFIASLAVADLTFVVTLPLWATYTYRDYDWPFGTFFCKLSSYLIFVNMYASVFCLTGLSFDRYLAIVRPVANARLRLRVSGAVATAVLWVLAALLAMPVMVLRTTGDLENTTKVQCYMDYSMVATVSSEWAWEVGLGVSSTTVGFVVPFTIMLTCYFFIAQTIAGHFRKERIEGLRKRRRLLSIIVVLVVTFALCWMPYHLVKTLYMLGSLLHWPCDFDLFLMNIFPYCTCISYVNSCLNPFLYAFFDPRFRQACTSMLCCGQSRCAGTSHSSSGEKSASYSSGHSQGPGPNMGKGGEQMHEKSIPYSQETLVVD

B1: MM193 (peptide)
peptide: CRPR[Nle]CKHCR[Aib]R[Nle][Phe(3,4,5-F3)]
modifications: cysteine pairing not given here
notes: also called CRPR-Nle-CKHCR-Aib-R-Nle-(3,4,5-trifluoro-)F
B2: MM108 (peptide)
peptide: CRPRLCKHCRPRLC
notes: Linear peptide
B3: MM54 (peptide)
peptide: CRPRLCKHCRPRLC
modifications: disulfide 1-6, 9-14
notes: Previously published macrocyclic comparator; also called cyclo(1-6)CRPRLC-KH-cyclo(9-14)CRPRLC
B4: MM262 (peptide)
peptide: QRPR[Nle]CKHCR[Aib]R[Nle][Phe(3,4,5-F3)]
modifications: cysteine pairing not given here
notes: also called QRPR-Nle-CKHCR-Aib-R-Nle-(3,4,5-trifluoro-)F
B5: MM107 (peptide)
peptide: CRPRLCHKCRPRLC
B6: MM316 (peptide)
peptide: Myristoyl-ARPR[Nle][Abu]HK[Abu]R[Aib]R[Nle][Phe(3,4,5-F3)]
B7: MM297 (peptide)
peptide: [pGlu]RPR[Nle]CKHCR[Aib]R[Nle][Phe(3,4,5-F3)]
modifications: cysteine pairing not given here
B8: MM314 (peptide)
peptide: ARPR[Nle][Abu]KH[Abu]R[Aib]R[Nle][Phe(3,4,5-F3)]
B9: MM313 (peptide)
peptide: Ac-ARPR[Nle]CKH[Abu]R[Aib]R[Nle][Phe(3,4,5-F3)]
B10: MM298 (peptide)
peptide: CRPR[Nle][Abu]KHCR[Aib]R[Nle][Phe(3,4,5-F3)]
modifications: cysteine pairing not given here
B11: MM299 (peptide)
peptide: CRPR[Nle]CKH[Abu]R[Aib]R[Nle][Phe(3,4,5-F3)]
modifications: cysteine pairing not given here
B12: MM315 (peptide)
peptide: Myristoyl-ARPR[Nle][Abu]KH[Abu]R[Aib]R[Nle][Phe(3,4,5-F3)]
B13: MM312 (peptide)
peptide: ARPR[Nle]CKH[Abu]R[Aib]R[Nle][Phe(3,4,5-F3)]
B14: MM300 (peptide)
peptide: Myristoyl-CRPR[Nle]CKHCR[Aib]R[Nle][Phe(3,4,5-F3)]
modifications: cysteine pairing not given here
notes: also called Myristoyl-CRPR-Nle-CKHCR-Aib-R-Nle-(3,4,5-trifluoro-)F
B15: MM302 (peptide)
peptide: CRPR[Nle]CHKCR[Aib]R[Nle][Phe(3,4,5-F3)]
modifications: cysteine pairing not given here
notes: also called CRPR-Nle-CHKCR-Aib-R-Nle-(3,4,5-trifluoro-)F

Broadly, the Kd is the constant that tells how readily two partners part at equilibrium. In general, Ki refers to the dissociation constant of the complex between target and ligand, obtained from inhibition or displacement. Read a high Ki as a looser hold on the target.

For one assay, the target named is T1, human apelin receptor. In words: radioligand competition vs [Glp65,Nle75,Tyr77][125I]apelin-13 on human left ventricle homogenate. As for the experimental part: Equilibrium was broken by centrifugation (20,000 g for 10 min, 4° C.). Pellets were washed with Tris-HCl buffer (50 mmol/L, pH 7.4, 4° C.), re-centrifuged and bound radioactivity in the final pellets counted. Data from triplicate experiments were analysed using the iterative non-linear curve fitting programs EBDA and LIGAND (KELL package, Biosoft, UK) or GraphPad Prism 6 to derive values of affinity (expressed as either the equilibrium dissociation constant KD or the negative log₁₀ of the dissociation constant, pKᵢ±sem) and receptor density (BMAX±sem in fmoles bound per mg protein).
A general note: In a radioligand displacement assay an active substance lowers the binding of a labelled ligand.
As to B1, the “HLV pKi” value amounted to 6.12.

Another assay has as its target T1, human apelin receptor. Briefly: cell-based or functional assay.
Turning to B2, the “DRx β-Arrestin pA2” value came out at 7.41.
Consider B3, for which the “DRx cAMP pD2” value worked out at 5.86.
For the molecule B1, the “DRx β-Arrestin pA2” value turned out to be 7.68.
Take B4: the “DRx β-Arrestin pA2” value worked out at 7.53.
For B5, the “DRx β-Arrestin pA2” value was determined as 7.24.

The target of the next assay is T1, human apelin receptor. In words: cell-based or functional assay. The source holds these as a separate data set.
With B3, the “DRx cAMP assay EC50 (weak agonist activity)” value was found to be 1400 nM.

For another assay, the target named is T1, human apelin receptor. Briefly: cell-based or functional assay. The source holds these as a separate data set.
B6: the DRx cAMP pA2 is 7.41 and 7.88.
Take B7: the DRx cAMP pA2 was 6.08 and 6.14; the DRx β-Arrestin pA2 amounted to 7.38.
Turning to B8, the DRx cAMP pA2 is 6.43 and 6.71.
As for B9, the DRx cAMP pA2 is 6.66 and 6.92.
For the molecule B10, the DRx cAMP pA2 was 7.59 and 7.12; the DRx β-Arrestin pA2 turned out to be 7.76.
For B11, the DRx cAMP pA2 was 7.32 and 6.95; the DRx β-Arrestin pA2 was 8.1 and 8.53.
As for B12, the DRx cAMP pA2 was 8.52 and 8.11.
Same read-out and setting: then B13, with 6.6 and 6.84.

The next assay has as its target T1, human apelin receptor. Briefly: binding to human left ventricle.
As for B3, the Kd turned out to be 358 nM. This counts as sub-micromolar.

The next assay deals with T1, human apelin receptor. In words: radioligand competition vs [Glp65,Nle75,Tyr77][125I]apelin-13 on CHO-K1 cells expressing human apelin receptor (Cerep); Cheng-Prusoff. On the procedure: Binding assays were performed by Cerep (Celle L'Evescault, France) on Chinese Hamster Ovary (CHO-K1) cells expressing the human apelin receptor. […] The results were expressed as a percent of control specific binding ((measured specific binding/control specific binding)×100) and as a percent inhibition of control specific binding (100−((measured specific binding/control specific binding)×100)) obtained in the presence of the test compounds. […] Results showing an inhibition between 20% and 50% were indicative of weak to moderate effects.
As for B6, the Ki was 3 nM and 2.8 nM.
In the case of B7, the Ki amounted to 55 nM.
The molecule B14 yielded an inhibition constant (Ki) of 13 nM.
Take B8: the Ki is 10 nM and 8.9 nM.
B9: the Ki is 53 nM and 47 nM.
In the case of B2, the Ki was determined as 140 nM.
For the molecule B10, the Ki came out at 16 nM.
Consider B11, for which the Ki was found to be 6.1 nM.
Still for that read-out and setting: then B3, with 82 nM; and B1, with 19 nM.
Same read-out and setting: with B4 the figure was 34 nM; with B12, 3 nM and 2.7 nM.
On to B13, for which the Ki is 190 nM and 160 nM.
B15: the Ki amounted to 17 nM.
In turn, B5 registered a Ki of 180 nM.
